Test results: paper PMC8078012 (Cell systems, 2020)

Target: MBP-GSK3β-HA-His (human, UniProt P49841 1-420, phosphotyrosine at 216 (activation loop))
Assay: BLI

Sequence of MBP-GSK3β-HA-His (P49841 whole entry): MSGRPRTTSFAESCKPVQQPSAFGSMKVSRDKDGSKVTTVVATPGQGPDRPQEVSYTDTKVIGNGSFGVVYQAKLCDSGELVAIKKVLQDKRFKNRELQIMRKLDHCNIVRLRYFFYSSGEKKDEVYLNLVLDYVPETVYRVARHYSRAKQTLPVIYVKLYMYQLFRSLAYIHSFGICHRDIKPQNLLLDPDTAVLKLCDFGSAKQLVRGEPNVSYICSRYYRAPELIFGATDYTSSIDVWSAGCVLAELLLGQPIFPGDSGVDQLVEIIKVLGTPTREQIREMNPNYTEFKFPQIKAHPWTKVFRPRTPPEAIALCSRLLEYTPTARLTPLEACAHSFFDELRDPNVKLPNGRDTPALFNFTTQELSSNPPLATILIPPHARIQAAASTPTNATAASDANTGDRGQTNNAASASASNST

Kd: 16 nM
B1: MBP-Axin_(384-518)-His (miniAxin) (domain or fragment, human, UniProt O15169-2 384-518, looked up)
chain: EPQKFAEELIHRLEAVQRTREAEEKLEERLKRVRMEEEGEDGDPSSGPPGPCHKLPPAPAWHHFPPRCVDMGCAGLRDAHEENPESILDEHVQRVLRTPGRQSPGPGHRSPDSGHVAKMPVALGGAASGHGKHVP
modifications: biotin (NHS-PEG4-biotin, molar coupling ratio 1:1) where it was immobilised (assay with GSK3β)
